In US5705608, “Human IL-2 receptor γ chain molecule” (Ajinomoto Co., Inc., dated 1998):

Columns and labels:
IL-2 labelled with 125I [1] = biological target: T1, IL-2 labelled with 125I (human, UniProt P60568, 125I label by the chloramine-T method); assay: 125I-IL-2 binding to Lβγ-9 cells at 4° C., Scatchard plot
Method: (§1) The radioactivity of ^125I-IL-2 bound or not bound to the cells was determined. The value for the background or the binding radioactivity in the case of addition of unlabelled IL-2 was subtracted from each of the measurements to calculate the binding amounts, the binding ability and the binding affinity of IL-2 to the receptor as determined by a Scatchard plot.

IL-2 labelled with 125I [2] = biological target: T1, IL-2 labelled with 125I; assay: 125I-IL-2 binding to Lαβγ-4 cells at 4° C., Scatchard plot, biphasic, low affinity component
Method: as §1

IL-2 labelled with 125I [3] = biological target: T1, IL-2 labelled with 125I; assay: 125I-IL-2 binding to Lαβγ-4 cells at 4° C., Scatchard plot, biphasic, high affinity component
Method: as §1

Kd (IL-2 labelled with 125I [1]) | Kd (IL-2 labelled with 125I [2]) | Kd (IL-2 labelled with 125I [3]) | Binder
4.6 nM | – | – | IL-2 receptor β and γ chains on Lβγ-9 cells (L929 cells with IL-2 receptor β and γ chain expression) (receptor) chain 1: AVNGTSQFTCFYNSRANISCVWSQDGALQDTSCQVHAWPDRRRWNQTCELLPVSQASWACNLILGAPDSQKLTTVDIVTLRVLCREGVRWRVMAIQDFKPFENLRLMAPISLQVVHVETHRCNISWEISQASHYFERHLEFEARTLSPGHTWEEAPLLTLKQKQEWICLETLTPDTQYEFQVRVKPLQGEFTTWSPWSQPLAFRTKPAALGKDTIPWLGHLLVGLSGAFGFIILVYLLINCRNTGPWLKKVLKCNTPDPSKFFSQLSSEHGGDVQKWLSSPFPSSSFSPGGLAPEISPLEVLERDKVTQLLLQQDKVPEPASLSSNHSLTSCFTNQGYFFFHLPDALEIEACQVYFTYDPYSEEDPDEGVAGAPTGSSPQPLQPLSGEDDAYCTFPSRDDLLLFSPSLLGGPSPPSTAPGGSGAGEERMPPSLQERVPRDWDPQPLGPPTPGVPDLVDFQPPPELVLREAGEEVPDAGPREGVSFPWSRPPGQGEFRALNARLPLNTDAYLSLQELQGQDPTHLV chain 2: LNTTILTPNGNEDTTADFFLTTMPTDSLSVSTLPLPEVQCFVFNVEYMNCTWNSSSEPQPTNLTLHYWYKNSDNDKVQKCSHYLFSEEITSGCQLQKKEIHLYQTFVVQLQDPREPRRQATQMLKLQNLVIPWAPENLTLHKLSESQLELNWNNRFLNHCLEHLVQYRTDWDHSWTEQSVDYRHKFSLPSVDGQKRYTFRVRSRFNPLCGSAQHWSEWSHPIHWGSNTSKENPFLFALEAVVISVGSMGLIISLLCVYFWLERTMPRIPTLKNLEDLVTEYHGNFSAWSGVSKGLAESLQPDYSERLCLVSEIPPKGGALGEGPGASPCNQHSPYWAPPCYTLKPET
– | 2.4 nM | 0.077 nM | IL-2 receptor α, β and γ chains on Lαβγ-4 cells (L929 with IL-2 receptor α, β and γ chain expression) (receptor) chain 1: ELCDDDPPEIPHATFKAMAYKEGTMLNCECKRGFRRIKSGSLYMLCTGNSSHSSWDNQCQCTSSATRNTTKQVTPQPEEQKERKTTEMQSPMQPVDQASLPGHCREPPPWENEATERIYHFVVGQMVYYQCVQGYRALHRGPAESVCKMTHGKTRWTQPQLICTGEMETSQFPGEEKPQASPEGRPESETSCLVTTTDFQIQTEMAATMETSIFTTEYQVAVAGCVFLLISVLLLSGLTWQRRQRKSRRTI chain 2: AVNGTSQFTCFYNSRANISCVWSQDGALQDTSCQVHAWPDRRRWNQTCELLPVSQASWACNLILGAPDSQKLTTVDIVTLRVLCREGVRWRVMAIQDFKPFENLRLMAPISLQVVHVETHRCNISWEISQASHYFERHLEFEARTLSPGHTWEEAPLLTLKQKQEWICLETLTPDTQYEFQVRVKPLQGEFTTWSPWSQPLAFRTKPAALGKDTIPWLGHLLVGLSGAFGFIILVYLLINCRNTGPWLKKVLKCNTPDPSKFFSQLSSEHGGDVQKWLSSPFPSSSFSPGGLAPEISPLEVLERDKVTQLLLQQDKVPEPASLSSNHSLTSCFTNQGYFFFHLPDALEIEACQVYFTYDPYSEEDPDEGVAGAPTGSSPQPLQPLSGEDDAYCTFPSRDDLLLFSPSLLGGPSPPSTAPGGSGAGEERMPPSLQERVPRDWDPQPLGPPTPGVPDLVDFQPPPELVLREAGEEVPDAGPREGVSFPWSRPPGQGEFRALNARLPLNTDAYLSLQELQGQDPTHLV chain 3: LNTTILTPNGNEDTTADFFLTTMPTDSLSVSTLPLPEVQCFVFNVEYMNCTWNSSSEPQPTNLTLHYWYKNSDNDKVQKCSHYLFSEEITSGCQLQKKEIHLYQTFVVQLQDPREPRRQATQMLKLQNLVIPWAPENLTLHKLSESQLELNWNNRFLNHCLEHLVQYRTDWDHSWTEQSVDYRHKFSLPSVDGQKRYTFRVRSRFNPLCGSAQHWSEWSHPIHWGSNTSKENPFLFALEAVVISVGSMGLIISLLCVYFWLERTMPRIPTLKNLEDLVTEYHGNFSAWSGVSKGLAESLQPDYSERLCLVSEIPPKGGALGEGPGASPCNQHSPYWAPPCYTLKPET
